Laboratory results as given in the supplement of paper PMC9732359.
± gives the uncertainty stated by the source.

Assay: protein stability index of a GFP-peptide fusion (yeast GPS) (PSI 1-4); higher = more stable; sorted into four equal gates, so the index is relative within each strain
Procedure, shortened: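 Tiled yeast protein peptides of 17 residues were each joined downstream of GFP, on plasmids that also express Cherry. The pooled library was maintained in yeast, and mid-log cultures in leucine-free medium were sorted into four equal gates on the GFP/Cherry ratio. Plasmids from every gate were amplified by PCR and sequenced on Illumina, with barcodes linking reads to strains. The protein stability index of a peptide is its gate-number-weighted read frequency summed over the gates.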

| Sequence | protein stability index (doa10∆) | protein stability index (pdr5∆) | protein stability index (san1∆) | protein stability index (ubr1∆) |
| --- | --- | --- | --- | --- |
| ETIIEADKSLPSSMATL [YJR042W/NUP85] | 2.75 ± 0.083 | 2.85 ± 0.061 | 3 ± 0.046 | 2.91 ± 0.055 |
| ETIKSLEDPYKYHYKEE [CSN9] | 3.17 ± 0.09 | 3.13 ± 0.082 | 3.09 ± 0.07 | 3.14 ± 0.06 |
| ETYGSMEMSEKIQFILE [RPN5] | 2.41 ± 0.12 | 2.94 ± 0.082 | 2.53 ± 0.079 | 2.77 ± 0.079 |
| EVDKSKLITTYISLLKL [YDL116W/NUP84] | 2.66 ± 0.08 | 1.45 ± 0.06 | 1.27 ± 0.13 | 1.43 ± 0.046 |
| EVDVCDKCGLMGYSGWC [RET1] | 2.15 ± 0.098 | 2.73 ± 0.086 | 2.32 ± 0.19 | 2.39 ± 0.088 |
| EVFEFKTFNKIQSQVFE [BRR2] | – | 3.29 ± 0.19 | – | 3.08 ± 0.22 |
| EVFIGRVKDQDGRVNRF [YJR042W/NUP85] | 3.44 ± 0.2 | 3.28 ± 0.28 | 3.5 ± 0.14 | 3.19 ± 0.17 |
| EVGNRKHYLEDKLKVYK [SNF5] | 3.19 ± 0.1 | 3.19 ± 0.14 | 3.11 ± 0.12 | 3.06 ± 0.067 |
| EVGPWGSARTRWEMEAF [FAS2] | 1.23 ± 0.077 | 1.62 ± 0.25 | – | 1.6 ± 0.13 |
| EVIFTDVLKSQANTEPE [MCD1] | 3.07 ± 0.21 | 3.08 ± 0.12 | 2.97 ± 0.088 | 2.95 ± 0.12 |
| EVKLKASLKKMEETEQK [SMC3] | – | 3.16 ± 0.15 | 3.2 ± 0.17 | 3.53 ± 0.25 |
| EVLEKDAAIVKKYKNKT [YGR119C/NUP57] | 3.15 ± 0.11 | 3.24 ± 0.087 | 3.16 ± 0.071 | 3.1 ± 0.096 |
| EVLQGLLQGGAKVVVTT [FAS2] | 3.22 ± 0.092 | 2.91 ± 0.076 | 2.29 ± 0.076 | 1.61 ± 0.088 |
| EVNSLLLQVNKTFCEDP [GRR1] | 3.27 ± 0.099 | 3.34 ± 0.066 | 3.22 ± 0.054 | 3.24 ± 0.044 |
| EVSDFDEMYELTDPMTV [DIB1] | – | 3.48 ± 0.18 | 2.94 ± 0.23 | 2.85 ± 0.26 |
| EVSGENVVEADLKRFVD [QCR2] | 3.31 ± 0.19 | 3.25 ± 0.13 | 3.36 ± 0.058 | 3.66 ± 0.067 |
| EYAALASLADVMSIESL [FAS1] | 3.07 ± 0.069 | 3.11 ± 0.068 | 3.14 ± 0.069 | 3.07 ± 0.053 |
| EYGKHDFKNEESLSEEH [MED8] | 3.3 ± 0.1 | 3 ± 0.081 | 3.1 ± 0.053 | 3.34 ± 0.054 |
| EYIDAEEEESILIAMQP [RPB2] | 3.37 ± 0.076 | 3.41 ± 0.091 | 3.13 ± 0.067 | 3.46 ± 0.091 |
| EYKLATYGVPGSENKRG [NUT1] | 3.36 ± 0.086 | 3.25 ± 0.093 | 3.33 ± 0.046 | 2.96 ± 0.065 |
| EYNRLKVQDAIEEEIFD [LIN1] | 2.83 ± 0.057 | 2.31 ± 0.05 | 2.85 ± 0.057 | 2.93 ± 0.055 |
| EYYAKKRAFTKKVASAN [RPL16A] | 2.06 ± 0.081 | 1.7 ± 0.063 | 1.69 ± 0.11 | 1.57 ± 0.059 |
| FAAKQRQELQMQRQQQG [SNF2] | 2.66 ± 0.052 | 2.84 ± 0.046 | 2.71 ± 0.038 | 2.7 ± 0.045 |
| FADKKRDCIDISIFSTP [PRP8] | 3.2 ± 0.076 | 2.99 ± 0.072 | 2.87 ± 0.055 | 3.24 ± 0.068 |
| FAGVASKKVTSGVPRLK [RPO21] | 3.03 ± 0.2 | 3.08 ± 0.2 | – | – |

| Sequence | protein stability index (doa10∆) | protein stability index (pdr5∆) | protein stability index (san1∆) | protein stability index (ubr1∆) |
| --- | --- | --- | --- | --- |
| FALIDYFYDLDVLKDGE [BRN1] | 2.86 ± 0.049 | 2.76 ± 0.057 | 3.04 ± 0.061 | 2.79 ± 0.049 |
| FDALRSLDDNSTSLEKQ [YJL041W/NSP1] | 2.99 ± 0.086 | 3.03 ± 0.11 | 3 ± 0.062 | 3.02 ± 0.066 |
| FDEGTTLLSPKDNGMLI [RPO21] | 2.7 ± 0.066 | 2.45 ± 0.067 | 2.91 ± 0.061 | 1.96 ± 0.065 |
| FDEKTIEEMLEIISGYA [RPC17] | 1.36 ± 0.082 | 2.69 ± 0.14 | 2.07 ± 0.14 | 1.75 ± 0.09 |
| FDFIKDNETPSKKTSPK [YOR098C/NUP1] | 2.25 ± 0.051 | 2.87 ± 0.043 | 2.6 ± 0.063 | 2.96 ± 0.038 |
| FDFLDDGTAQLSNNKTD [YJR042W/NUP85] | 3.38 ± 0.23 | 3.52 ± 0.21 | 3.5 ± 0.099 | 3.39 ± 0.12 |
| FDKNTKTTPNTASSEAS [YMR153W/NUP53] | 2.99 ± 0.051 | 2.98 ± 0.053 | 2.9 ± 0.036 | 2.8 ± 0.043 |
| FDPSRIKDLKQREDKLK [SMC2] | 2.66 ± 0.087 | 2.88 ± 0.18 | 2.99 ± 0.28 | 2.92 ± 0.13 |
| FDVVLTTFEYIIKERAL [SNF2] | 2.12 ± 0.067 | 2.36 ± 0.071 | 2.05 ± 0.088 | 2.14 ± 0.071 |
| FEAAVKMSDGFNGADIR [RPT4] | 3.66 ± 0.18 | 3.46 ± 0.091 | 3.34 ± 0.053 | 3.39 ± 0.09 |
| FEDATREQHIDTICQSI [SNF5] | 2.88 ± 0.1 | 3.21 ± 0.15 | 3.26 ± 0.066 | 3.19 ± 0.08 |
| FEEWIKMATDNKINSRN [BRN1] | 3.27 ± 0.13 | 3.17 ± 0.096 | 3.27 ± 0.11 | 3.7 ± 0.14 |
| FEFGNMKATSNTLEEFE [FAS2] | 3.18 ± 0.054 | 3.4 ± 0.08 | 3.13 ± 0.061 | 3.23 ± 0.058 |
| FEFNIRHSGKVYPITLS [UBP6] | 1.74 ± 0.11 | 2.51 ± 0.12 | 2.89 ± 0.089 | 1.22 ± 0.056 |
| FEFQYLTIGVKFFMKHG [SRB5] | 1.18 ± 0.046 | 1.34 ± 0.047 | 1.21 ± 0.066 | 1.18 ± 0.035 |
| FEGTDDNEEASVKLDLQ [BRN1] | 3.2 ± 0.17 | 3.65 ± 0.11 | 3.49 ± 0.096 | 3.35 ± 0.098 |
| FEIDDEHRIRVFFDKRI [RPS6A] | 1.88 ± 0.089 | 3.02 ± 0.12 | 2.17 ± 0.13 | 2.94 ± 0.16 |
| FEKDLMAYFDENLNRNW [BRN1] | 2.93 ± 0.059 | 3.27 ± 0.063 | 3.14 ± 0.056 | 3.17 ± 0.057 |
| FELSFTGAPPYYYNTKI [YMR129W/POM152] | 2.75 ± 0.089 | 1.99 ± 0.12 | 2.66 ± 0.15 | 3.21 ± 0.12 |
| FEQFEKFYEEKLWFQLS [RPN9] | 3.08 ± 0.27 | 2.58 ± 0.26 | – | 1.72 ± 0.13 |
| FERPAVKEEKEDMETQA [RPC53] | 2.87 ± 0.24 | 2.71 ± 0.23 | 3.2 ± 0.084 | 3.46 ± 0.16 |
| FEVEMILMQQQMMARMA [SRP54] | 1.17 ± 0.12 | 1.19 ± 0.076 | 2.34 ± 0.15 | 1.73 ± 0.27 |
| FFGPTYYQRLRHMVDDK [RPB2] | 1.24 ± 0.046 | 1.26 ± 0.046 | 1.72 ± 0.1 | 1.36 ± 0.053 |
| FGATTNDDKKTEPDKPA [YJL041W/NSP1] | 1.55 ± 0.098 | 2.48 ± 0.097 | 2.61 ± 0.15 | 2.65 ± 0.11 |
